In assay [1] the target is T1, GI.7 norovirus virus-like particles (norovirus GI.7 (strain )). Kind of assay: SPR; VLPs captured by mAb 3912.
Assay [2] addresses T2, GI.1 norovirus (Norwalk virus) virus-like particles (Norwalk virus (norovirus GI.1), UniProt Q83884 1-530).
T2 chain: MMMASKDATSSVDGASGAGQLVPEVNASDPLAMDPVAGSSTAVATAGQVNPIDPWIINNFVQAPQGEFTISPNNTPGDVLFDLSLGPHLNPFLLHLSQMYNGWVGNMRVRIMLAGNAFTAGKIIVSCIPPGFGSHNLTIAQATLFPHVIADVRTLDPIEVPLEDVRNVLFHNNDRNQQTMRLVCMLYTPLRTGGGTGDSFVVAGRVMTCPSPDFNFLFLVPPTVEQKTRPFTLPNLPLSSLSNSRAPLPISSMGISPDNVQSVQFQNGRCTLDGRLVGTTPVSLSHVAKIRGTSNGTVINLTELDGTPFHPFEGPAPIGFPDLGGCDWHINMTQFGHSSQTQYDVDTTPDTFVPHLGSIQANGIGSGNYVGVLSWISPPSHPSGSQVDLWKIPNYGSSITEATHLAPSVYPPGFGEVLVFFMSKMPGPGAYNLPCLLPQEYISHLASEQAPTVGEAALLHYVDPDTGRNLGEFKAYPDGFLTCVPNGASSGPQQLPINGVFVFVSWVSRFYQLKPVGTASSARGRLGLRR
Kind of assay: SPR; VLPs captured by mAb 3912.

The target in assay [3] is T1, GI.7 norovirus virus-like particles. Kind of assay: SPR; kinetic fit; VLPs captured by mAb 3912. (In SPR one partner is held on a chip, and binding of the other changes the refractive index at the surface.)
Assay [4] deals with T2, GI.1 norovirus (Norwalk virus) …. Kind of assay: SPR; kinetic fit; VLPs captured by mAb 3912.

B1: Purified NJT-R3-A3 scFv soluble protein (scFv, V domains shown)
VH: EVQLLESGGGLVQPGGSLRLSCAASGFTFSSYAMSWVRQAPGKGLEWVSSIPRPGLHTSYADSVKGRFTISRDNSKNTLYLQMNSLRAEDTAVYYCAKHLRTFDYWGQGTLVTVSS
VL: DIQMTQSPSSLSASVGDRVTITCRASQSISSYLNWYQQKPGKAPKLLIYGASRLQSGVPSRFSGSGSGTDFTLTISSLQPEDFATYYCQQLPAVPITFGQGTKVEIK
What is called koff is a measure of how fast the partners let go of each other. The low end stands for a long-lived complex, the high end for a short-lived complex. For the molecule B1, the koff in assay [1] stood at 0.00224 s⁻¹; in assay [2], 0.00149 s⁻¹. The Ka in assay [3] worked out at 2.02e+07 M⁻¹; in assay [4], 3.69e+07 M⁻¹.

The values above are taken from paper PMC5240998 (2017).
